# Measured values published in the DeepSol protein solubility set.
# Experiment: soluble on expression in E. coli; label from the status in PepcDB or PDB records
row,Sequence,soluble on expression in E. coli
1,MGSDKIHHHHHHMYTYKIGISKEEHDNFIKNSSQTNLLQSSSWAKVKDEWENERIGFYQDSKLVASASILIRPLPLGMTMFYIPRGPVMNYQDKDLVNFVLTSLKKFAKRKRALFIKFDPFILLNHHQIDEEAINNPQAQTIIDTLKHLGCEWLGQTSDMGETIQPRFQANIYAEGFSEANLSKKIRQSIRTAKNKGVSIRFGGYELLADFSDLMKKTEDRKSIHLRGIDYYRKLLDNYPQHSFITLASLNLKERLTELESQRKKAQNNLAKFGDNVKPSKIDNTKKEIERLSDEIAFLQEHLSQGKDTVPLSGTLSLEFGKTSENVYAGMDDEFRRYQAAIYTWFATANHAFERGSHWQNMGGIENDLSGGLYNFKSKFKPEIEEFIGEFNLPVSPLYKLANIAYTIRKKRRSKH,not soluble
2,MAPRQLAAADLAVGQVVAQREIRLDAQAFAQFAALTGDAHPIHYDAGYVQRQGLRAPIAHGLLLVAISALGATPLSAQLHDAMVAMVGVEAVFMRPVYVDETVQCVYRVAQIEHVAKGRSKTTIAVSIHTTDAPPDAARQAHCVVHLTFLLKTHLQGLEHHHHHH,not soluble
3,MCHNGRMESLSLSHHFLIAMPGMGDPLFAKSLVYLCEHGEHGAMGLIINKPSGIAMAQLFDQIDLPLDDEDTRTGLVYFGGPVQPDRGFVLHQPAGNWQSSLMVTDDIALTTSKDVLVAVSEGKKPEQLLISLGYAGWSAGQLEKEIADNGWLTVPAEPSIVFDLPYEERYDAAMALLGFDPSLLSSDVGHALEHHHHHH,soluble
4,LKQRRKIANEVKIKNTLLEYAQQITQMGTFEYNVFTNTLFWSNEMYNIFELDRSVIPEINFIDSLIKEESEITHNRRKKNFQPGASYSDELKIRTVNGNEKVLISNGYVVNEENGLVVHGAIIDIT,not soluble
5,MTHSKDKKSHAFKGIGEKLNPTIYQVRFMKLDEPIRFESFPELKELGDWLSTSTHMWSCHSTMYKYNREEFEKKFLEITKLTADHVLISTGGVGFNFMSPGWRNSL,not soluble
6,SPGFSVGVIGDMFLLPNLNLRLLPTLHFGDKQFVFSDGEKPVASFSVRSNYLEFPLLLKYGSRRLNNMRPYLIGGPYWTMELGRKKGLEIYTKANDYGVQIGLGCDFYLPFFKLCPELRFSFGFPDVITHERPDLLDDYKLIYTQSISRARTRMIMLTFNFE,not soluble
7,GPGSMAGVLHETATTVSYRGALCKLAGVELQGINLSPPQRLCQLELLISREINWLAAVLEEWEEKYMLFTCVPYRGVVDAFTTLLRTIKRHLETENSSKDNEKEWDALLASSITEFQVEVMEIGKGKSY,soluble
8,MGSDKIHHHHHHMEILQRQLLFKLAVCQGIGNLGILKVLQEAIAQKRVDFSSTEIIRIAEIKKYRELFEQSWLHHTIHSEALYIRQCQHQFMTILDAVYPKLLREIYNPPAILFYRGNLQLLSRRKIGIVGARYATSYGLRVTEALVPKIVKEGFTIVSGLAKGIDSRSHEMAIQNGGQTIGILGTGLDVYYPYEKKELQQTMKQNQLVLTEYVNGSGPKKYHFPARNRIIAGLSLGVCVMEARKNSGSLITAQAAMDYGREVFAVPGSIFQSFSTGCHELIQDGAKCVQTIDDICEEL,not soluble
9,MSDHAEEHASINTKKTVENITDVRKTAKTSIDWTKPSGGEYPDIKQKHVWIDVNVKEQKAYIKEGSNTIYTMMISSGLDQTKDDATPKGTFYVEPERGEWFFSEGYQEGAEYWVSWKNHGEFLFHSVPMTKDQKVIKTEAEKLGTKVSHGCIRLTIPDAKWVYENIPEHTKVVISLEHHHHHH,not soluble
10,MGSDKIHHHHHHMNEPHGERISVEIPGLERILRGGFLPGRSYLVSGGPGTGKTTLGLQYLASSADGNGLLISLGESERNLRADALRIGLSLDGTSVIDLSPGADAEPEAAYTLLEPWEAEGVDIRSRIGALLPDGPPERVFIDALSQLRQLMPDAYQFRKQVMGLLEYLNSAGTTVLYTAEQGSSADTDLRYLGDGILELEHRENRRILRVLKFRGSGFSEGEHTLRLGDHGMQVFERLMPGEHRRTYVAEELPCGIGELDRLSGGGITRGTVTIISGPTGVGKTSLGLQYMHEAARRGERSVVYTFEESIGTLRTRCEAIGIPVSDMMAKGSLSIDEVEPLHYSPDEFAWRVRTEVEQQGARMVMLDSLAGFRQSVRGDDITAHAHALCHYLSNMGVTVLLVNEQSAIAGEELRPSEDDINYLADTIVLLRYMELDGGLRKAIGILKKRTGDFEKTLREFQITREGLRVGAPLYGLQGILQGIPSKIATLDATE,not soluble
11,MKWSSMLKVSAISLSVFTAVSAKAQLGEPEIEDLKFGFIKLTDMAPLAVAYEKGFFEDEGLYVTLEAQANWKVLLDRVIDGELDGAHMLAGQPLGATIGVGTKAEVITAFSMDLNGNAITVSNDTWEQMKPHIPKQPDGKPVHPIKADSLKPVVDSYRDKGKSFNMGMVFPVSTHNYELRYWLAAGGIHPGFYAPDSGDNSGQLDADVLLSVTPPPQMPATMEAGTIKGYCVGEPWNQQAVFKGIGTPVVTDYEIWKNNPEKVFGVSKAWAEKNPNTHIRVVKALIRAAHWLDENSNANRQEAVKMLAKSEYVGADADVIANSMTGTFEYEKGDKRDVPDFNVFFRHNATYPYYSDAIWYLTQMRRWGQISSEKSDDWYMDVAKEVYRPDIYQQAAQALIEDGVLSKKDFPDFSAEDGFRPPQTHFIDNIVYDGREPNKYLEKFSIGLKGKDKVMAGDPLEHHHHHH,soluble
12,MEAGFVSIGDVTFRDLEDEAIVELVRKGNTDALEYLIHKYKNFVRAKSRSYFLVGADREDIVQEGMIGLFKAIRDYKEDKLSSFKAFAELCITRQIITAIKTATRQKHIPLNSYVSLDKPIYDEESDRTLLDVISEAKVTDPEEMIISQEEYTDIESKISELLSDLERKVLSLYLDGRSYQEISEQLNRHVKSIDNALQRVKRKLERYMEMRESTTLNS,not soluble
13,SLNTPFSIDEVSFRDLPGWGQDDPRKLFPAMATILSHLRNAKPYRTGALGITAAELVSLLELAERGQVNSPEQARQFFETNSVPFRISPAQGKSGFVTAFYEPELEVSATPDDVWRYPIYRRPPELVDIDNDNRPDGFDPSYAFGKADEEGISYFPDRRAIDEGCLRGRGLEIAWARSKVDLFFVHVQGAARLVFPDGAIKRITYAAKAGHVFSPIGRLLLDRGELDPKTISMQTIRQWLADHPDEVDGVLWHNRSYIFFREADVAGLDMGPIAAAKVPLVAGRALAVDRLIHTFGLPFFIHAPTLTHLDDGKPFARLMLALDTGSAIVGPARGDIFTGSGFEAGELAGTVRNEADFYILLPRIAAERYRR,not soluble
14,TVEDSESDMDDAKLDALMGNEGEEEEDDLAEIDTSNIITSGRRTRGKVIDYKKTAEELDKKE,soluble
15,MSLKIVNITTQVESIELKTPFKTALRQTSHVEFVRVEVECDNGFVGIGEASATKVITGEDIYIILTSIASVEELFLNLTCEEALGALHTKCAIGSSAKASLDIAFVHLLSQEAKKPLYEYFGATDKSALKSDITISLNEADVMLNDAKKAFSNGMDILKIKVGSDILHAIDIVRKIAKELPECDILVDANQAWSFENTVLFIENMLNTPIKLIEQPVEAPNLDGLKKITELSHIPILADEAVFTLKDAKKVIEEKCADMINIKLMKCGGVSKAIEILEFARNREFKCMLGSMLEGPYSINMALHLAFAYRDVIEFVDLDSPLLYKEMPKELDFVFDGCEIKPLEGHHHHHH,soluble
16,GSLKCILLNQAEELPIEFLPKDGVYGKGKLFDSRNMEIENFTESDILQDARRAAEAHRRARYRVQSIVRPGITLLEIVRSIEDSTRTLLKGERNNGIGFPAGMSMNSCAAHYTVNPGEQDIVLKEDDVLKIDFGTHSDGRIMDSAFTVAFKENLEPLLVAAREGTETGIKSLGVDVRVCDIGRDINEVISSYEVEIGGRMWPIRPISDLHGHSISQFRIHGGISIPAVNNRDTTRIKGDSFYAVETFATTGKGSIDDRPPCSHFVLNTYKSRKLFNKDLIKVYEFVKDSLGTLPFSPRHLDYYGLVKGGSLKSVNLLTMMGLLTPYPPLNDIDGCKVAQFEHTVYLSEHGKEVLTRGDDY,soluble
17,MGSDKIHHHHHHMANVTPDLVKALFVGFGKNFKDGLAKAPSQYTEIATVVKSTTASNTYAWLGQMPGLTEWIGDRTLTAIQSHGYSIVNKKWANGVEIQRTDIEDDNVGVYSPLIEELGRAAGEKADELVFGALTAGFKTACYDGQYFFDTDHPVGANVDGTNQKSVSNITDDSTGVTEANAWYLLDCSRSLKPIIYQERKAPTPAQITDANDEKVFMKDVFTYGVDSRSNVGYGFWQMAHAVKGKLTAENLWKAIEAMRAVRGDGDKRLAIRPTHIVVPPSLAQAATKLLERELRAEDGVAVDNEFKRMNLKLIVGDYL,not soluble
18,MGSDKIHHHHHHMSIGIVIASHGEFAAGIKQSGSMIFGEQEKVQVVTFMPSEGPTDLHAKIEAAIATFDAEDEVLVLADLWSGSPFNQASAVMGENPERKIAIITGLNLPMLIQAYTERMMDASAGVDKVVANIMKEAKGGIKVLPEELQPAEETAVAAAPAAVQGAIPEGTVIGDGKIKINLARIDSRLLHGQVATAWTPDSRANRIIVVSDTVSKDELRKKLIEQAAPTGVKANVIPIKKMIEVAKDPRFGDTKALLLFETPQDALATIEGGVPIETLNVGSMAHSTGKTMLNKVLSMDKDDVATFEKLRDLGVKFDVRKVPADSKSDLFGLINKADVQ,not soluble
19,GHHHHHHHHHHSSGHIEGRHMKRMIALDGAQGEGGGQILRSALSLSMITGQPFTITSIRAGRAKPGLLRQHLTAVKAATEICGATVEGAELGSQRLLFRPGTVRGGDYRFAIGSAGSCTLVLQTVLPALWFADGPSRVEVSGGTDNPSAPPADFIRRVLEPLLAKIGIHQQTTLLRHGFYPAGGGVVATEVSPVASFNTLQLGERGNIVQMRGEVLLAGVPRHVAEREIATLAGSFSLHEQNIHNLPRDQGPGNTVSLEVESENITERFFVVGEKRVSAEVVAAQLVKEVKRYLASTAAVGEYLADQLVLPMALAGAGEFTVAHPSCHLLTNIAVVERFLPVRFSLIETDGVTRVSIE,soluble
20,MSLRTTHIPLVAIVLASVCSSLAAPKAGGLELIILHNNDMHARFEQTGAYSNDCQPSDVASNRCYGGFARVAHKVREYRATEASGGLPVLYLNAGDTYTGTPWFSVFKDNITAAFLNILKPDAISLGNHEFDLGVEGLVPFLNEVDFPVLVTNLDLSKTPEMQTSRSLQRSIIFTKAGVRIGVIGYLTPETKQLAPINTVEFLDEIEEINKEATSLKNQGVNILIALGHSGLERDKEIAAQCPDVDLVIGGHSHTFLYSGTAPDVEDPAGPYPVMVKNAAGKEVPVVQAYAYTKYLGYLHLQFDTEGNLIELDGTPLLLNGTVERDSDVLQLLELYRPGILALDAQIGHSNVFLDSSRCRFEECNIGNMIADSLVITYATTREQSNDGFWTDAAIGFIQGGGIRASVNAGPITMKDLKTVLPFGNAMVVTDITGAQLRQMLEQSVHRYDGVSGYGEFLQMAGVNVEYDLSRPPMQRVVHVKVRCARCQVPAYEELQDDGVYRVILSQFLYDGGDGYEMLPGSPRQLLTFGEYEITEEYLKRYSPIYPAIEWRIRMQGQPNVTEGHHHHHH,soluble
21,MTDMDPSNMTGGPMNGHSAEKSSEEKKSPRSSRGVGEDLKNAGKDAMNTMENAGKNAWDKAGELGKSGINTVQSAGSAVKNGAKDLAGKVDKAL,soluble
22,ALKPTIYKFRIALSDMNNDYYDSKNLTIALHPSEKPQRMLARILAFCLNAQKDLEFTKGLSTTEEPDLWHVADDQSITHWIEIGEPEPDRIKKASRLAKQVKVYTYNTKAPVWWEKMSGKFSMLPVSVESFDYDAIDMICQHLDRGTNLSVMITGTSIFVDVNDQHVEVTVKELQS,soluble
23,KALYSKPGSKNGRWNPETHKFCKCGVRIQTSAYTCSKCRNRSGENNSFFNHKHSDITKSKISEKMKGKKPSNIKKISCDGVIFDCAADAARHFKISSGLVTYRVKSDKWNWFYINA,soluble
